# Experimental data: publication PMC5618221
# Tests used:
# [1] = target: Hbl B in culture supernatant of B. cereus strain MHI 1532 (Bacillus cereus strain MHI 1532 (endogenous in culture supernatant)) (UniProt P80172); experiment: co-IP
# [2] = target: recombinant Hbl L1 (haemolysin BL component L1) (Bacillus cereus strain F837/76); experiment: SPR; BIACORE 3000; rHbl L1 amine-coupled to CM5 chip (560 RU); rHbl L2 or B injected 7.8 nM to 2 uM at 30 uL/min, 20 °C, in PBS, 1 mM DTT, 0.005% Tween 20; KD from steady state, one-site model, mean of three (L2) or four (B) experiments; L1 + B did not reach full saturation at lower concentrations, KD likely slightly underestimated
# [3] = target: recombinant Hbl B (haemolysin BL binding component B) (Bacillus cereus strain F837/76) (UniProt P80172); experiment: SPR; BIACORE 3000; rHbl B amine-coupled to CM5 chip (500 RU); rHbl L2 injected 31.2 nM to 4 uM at 30 uL/min, 20 °C, in PBS, 1 mM DTT, 0.005% Tween 20; KD from steady state, mean of four experiments
Substance,percent in elution fraction [1] [%],percent in sample flow-through [1] [%],percent in wash fraction [1] [%],Kd [2] [nM],Kd [3] [nM]
Hbl L2 in culture supernatant of B. cereus strain MHI 1532 (natural protein),29,51,20,,
Hbl L1 in culture supernatant of B. cereus strain MHI 1532 (natural protein),180,< 5,< 5,,
recombinant Hbl B (haemolysin BL binding component B) (from UniProt P80172 32-375) (natural protein),,,,470,
recombinant Hbl L2 (haemolysin BL component L2) (natural protein),,,,150,3400
